Laboratory results as given in patent US20210380675A1 (Kyowa Kirin, published 2021).
Numbering of substitutions follows the chain as printed.

Tests used:
[1] = biological target: T1, human IL-36α(R12), truncated (human, UniProt Q9UHA7 6-158); assay: SPR, Biacore T200, antibody on chip, IL-36 as analyte, 1:1 Langmuir fit
T1 construct: Untagged after removal of the His-SUMO tag; also called hIL-36alpha
T1 chain: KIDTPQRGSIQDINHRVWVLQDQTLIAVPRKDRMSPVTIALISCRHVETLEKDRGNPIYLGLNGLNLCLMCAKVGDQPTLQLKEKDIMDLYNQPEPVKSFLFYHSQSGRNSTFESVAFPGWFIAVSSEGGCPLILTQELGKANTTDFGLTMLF
Method: (§1) Antibodies were further tested for their binding to recombinant human or cynomolgus IL36α, IL-36γ in Biacore assays. In order to kinetically analyze the binding activity of the IL-36α and IL-36γ dual antagonist antibodies, the binding activity to human and cynomolgus IL-36α and IL-36γ was measured by surface plasmon resonance method (SPR). All of the following manipulations were carried out using a Biacore T200 (GE Healthcare Life Sciences, Pittsburgh, Pa.).
(§2) To determine antibody affinity to human and cynomolgus IL36, recombinant antibodies were immobilized on a CM5 sensor chip (cat# BR100012, GE Healthcare Life Sciences, Pittsburgh, Pa.) by an amine coupling chemistry. In particular, the kinetic assay was carried out by immobilizing on the chip approximately 2000 RU of recombinant antibody. Thereafter, recombinant human or cynomolgus IL36 proteins, serially diluted from a high concentration, were allowed to run at a flow rate of 30 μL/min onto the chip for 420 seconds. The dissociation time was 3600 seconds and the binding curves were measured at 25° C. Regeneration was performed with 10 mM glycine pH 1.5 for 30s. Alternatively, the analytes were injected with increasing concentrations in a single cycle, the surface not being regenerated between injections, using a method referred to as “single cycle kinetics.” In particular, either anti-human or anti-mouse Fc specific antibodies were immobilized on a CM5 sensor chip (cat# BR100012, GE Healthcare Life Sciences, Pittsburgh, Pa.) by an amine coupling chemistry. Thereafter, IL-36α and IL-36γ dual antagonist mouse/human chimeric or mouse antibodies were captured at approximately 200 RUs, followed by injections of increasing concentrations of recombinant human and cynomolgus IL36 proteins. The association time was 300 seconds, and the final dissociation time was 1200 seconds. At the end of the analyte injections, the surface was regenerated with either 3M MgCl₂ (anti-human Fc capture antibody) for 30 s or 10 mM glycine-HCl pH 1.7 for 180 s (anti-mouse IgG capture antibody).
(§3) The raw data were double referenced by subtraction of the signals from a reference flow cell without immobilized ligand and a buffer blank. The sensorgram corresponding to each concentration was obtained.

human IL-36γ, truncated [2] = biological target: T2, human IL-36γ, truncated (human, UniProt Q9NZH8 18-169); assay: as above
T2 construct: Bought from R&D Systems (cat 6835-IL); also called human IL-36 gamma; hIL-36gamma
T2 sequence: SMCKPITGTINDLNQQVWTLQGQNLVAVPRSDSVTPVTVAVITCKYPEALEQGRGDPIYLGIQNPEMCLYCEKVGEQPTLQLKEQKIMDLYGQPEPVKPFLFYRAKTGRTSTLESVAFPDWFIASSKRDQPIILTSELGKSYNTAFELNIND
Method: as §1, §2, §3

[3] = biological target: T3, cynomolgus IL-36γ, truncated (cynomolgus macaque (Macaca fascicularis), UniProt Q9NZH8 18-167 (human entry), limits assumed); assay: as above
T3 construct: Untagged after removal of the His-SUMO tag; also called cynomolgus IL-36 gamma; cyIL-36gamma
T3 chain: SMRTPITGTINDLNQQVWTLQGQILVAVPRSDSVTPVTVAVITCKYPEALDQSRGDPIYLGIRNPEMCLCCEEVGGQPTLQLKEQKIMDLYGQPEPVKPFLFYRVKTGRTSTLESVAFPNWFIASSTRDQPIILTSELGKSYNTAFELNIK
Method: as §1, §2, §3

[4] = biological target: T4, human IL-36α(Q12), truncated (human, UniProt Q9UHA7 6-158); assay: as above
T4 construct: Untagged after removal of the His-SUMO tag
T4 sequence: T1 chain with R7Q
Method: as §1, §2, §3

[5] = biological target: T5, cynomolgus IL-36α, truncated (cynomolgus macaque (Macaca fascicularis), UniProt Q9UHA7 14-158 (human entry), limits assumed); assay: as above
T5 construct: Untagged after removal of the His-SUMO tag; also called cynomolgus IL-36 alpha; cyIL-36alpha
T5 chain: T1 chain with I2S, D3E, T4M, R7P, G8V, T24I, M34V, A40S, V74A
Method: as §1, §2, §3

[6] = biological target: T1, human IL-36α(R12), truncated; assay: cell-based or functional assay
[7] = biological target: T5, cynomolgus IL-36α, truncated; assay: cell-based or functional assay
[8] = biological target: T1, human IL-36α(R12), truncated; assay: cell-based or functional assay
human IL-36γ, truncated [9] = biological target: T2, human IL-36γ, truncated; assay: cell-based or functional assay
[10] = biological target: T1, human IL-36α(R12), truncated; assay: cell-based or functional assay
human IL-36γ, truncated [11] = biological target: T2, human IL-36γ, truncated; assay: cell-based or functional assay; remark: listed apart in the source
human IL-36γ, truncated [12] = biological target: T2, human IL-36γ, truncated; assay: cell-based or functional assay; remark: listed apart in the source
[13] = biological target: T3, cynomolgus IL-36γ, truncated; assay: cell-based or functional assay

B1: chimeric m/h 144D464A (antibody, human IgG1, lambda, V domains shown)
VH: EVQLQQSGAELVKPGASVRLSCTASGFNIKDTYIHWVKQRPEQGLEWIGRIDPAIGTTRYDPKFQGKATITTDTSSDTVHLQFSSLTSEDTAVYYCARLHYFGNNFFFDYWGQGTTLTVSS
VL: QAVVTQESALTTSPGEAVTLTCRSSSGAVTTSNYANWVQEKPDHLFAGLIGGTNDRAPGVPARFSGSLIGDKAALTITGAQTEDEAIYFCALWFSNHWVFGGGTKLTVLG
notes: Mouse VH/VL joined to human IgG1 constant and human Ig lambda (IGLC2) constant; also called chimeric mouse/human (m/h) 144D464A antibody
In the case of B1, the Kd [1] is reported as 2.18 nM, the koff [1] is reported as 0.000309 s⁻¹ and the kon [1] is reported as 142000 M⁻¹ s⁻¹. The Kd (human IL-36γ, truncated [2]) was 1.48 nM, the koff (human IL-36γ, truncated [2]) was 0.000218 s⁻¹ and the kon (human IL-36γ, truncated [2]) was 147000 M⁻¹ s⁻¹. For the same binder, the Kd [3] was 1.84 nM, the koff [3] was 0.000342 s⁻¹ and the kon [3] was 186000 M⁻¹ s⁻¹. The Kd [4] was 1.08 nM, the koff [4] was 0.000391 s⁻¹ and the kon [4] was 361000 M⁻¹ s⁻¹. For the same binder, the Kd [5] was 1.64 nM, the koff [5] was 0.000267 s⁻¹ and the kon [5] was 163000 M⁻¹ s⁻¹. The “IC50 of IL-8 secretion, HaCaT, 10 nM human IL-36α, FIG. 1A” value [6] was 3.84 nM, the “IC50 of IL-8 secretion, HaCaT, 10 nM human IL-36α, FIG. 1C” value (“IC50 of IL-8 secretion, HaCaT … FIG. 1C” for short) [6] was 7.77 nM and the “IC50 of IL-8 secretion, HaCaT, 10 nM cynomolgus IL-36α, FIG. 2B” value (from here on “IC50 of IL-8 secretion, HaCaT … FIG. 2B”) [7] was 4.91 nM. The “IC50 of IL-8 secretion, primary human keratinocytes, 6.25 nM human IL-36α, FIG. 4A” value [8] was 2.32 nM, the “IC50 of IL-8 secretion, primary human keratinocytes, 8 nM human IL-36α, FIG. 4B” value [8] was 12.3 nM and the “IC50 of IL-8 secretion, primary human keratinocytes, 8.4 nM human IL-36γ, FIG. 4C” value (human IL-36γ, truncated [9]) was 12.8 nM. For the same binder, the “IC50 of IL-8 secretion, primary human keratinocytes, 8.4 nM human IL-36γ, FIG. 4D” value (human IL-36γ, truncated [9]) was 10 nM, the “IC50 of IL-8 secretion, primary human monocytes, 20 nM human IL-36α, FIG. 5A” value (shortened to “IC50 of IL-8 secretion … FIG. 5A”) [10] was 7.15 nM and the “IC50 of IL-8 secretion, primary human monocytes, 40 nM human IL-36α, FIG. 5B” value [10] was 22.4 nM. The “IC50 of IL-8 secretion, primary human monocytes, 50 nM human IL-36γ, FIG. 5D” value (“IC50 of IL-8 secretion … FIG. 5D” for short) (human IL-36γ, truncated [11]) was 33.3 nM, the “IC50 of IL-8 secretion, HaCaT, 10 nM human IL-36γ, FIG. 1D” value (human IL-36γ, truncated [12]) was 6.43 nM and the “IC50 of IL-8 secretion, HaCaT, 10 nM human IL-36γ, FIG. 1F” value (“IC50 of IL-8 secretion, HaCaT … FIG. 1F” below) (human IL-36γ, truncated [12]) was 9.54 nM. For the same binder, the “IC50 of IL-8 secretion, HaCaT, 10 nM cynomolgus IL-36γ, FIG. 2D” value (“IC50 of IL-8 secretion, HaCaT … FIG. 2D” for short) [13] was 13.2 nM.

B2: 144L124B (antibody, V domains shown)
VH: EVQLQQSGAELVKPGASVKLSCTASGFNIKDTYIYWVKQRPEQGLEWIGRIDPANGYTRYDPKFQGKATMTADTSSNTAYLQLSSLTSEDTAVYYCARYEYYDSSFYFDYWGQGTTLTVSS
VL: QAVVTQESALTTSPGETVTLTCRSSTGAVTTSNYANWVQEKPDHLFTGLIGGTNNRAPGVPARFSGSLIGDKAALTITGAQTEDEAIYFCALWYSNHLVFGGGTKLTVL
notes: Mouse monoclonal from hybridoma; mouse IgG heavy and lambda light chain; Same VH and VL as 144L180A
B2 gave a Kd [1] of 3.56 nM, a koff [1] of 0.0417 s⁻¹ and a kon [1] of 1.17e+07 M⁻¹ s⁻¹. It also gave a Kd (human IL-36γ, truncated [2]) of 0.833 nM, a koff (human IL-36γ, truncated [2]) of 0.000691 s⁻¹ and a kon (human IL-36γ, truncated [2]) of 829000 M⁻¹ s⁻¹. It also gave a Kd [3] of 0.824 nM, a koff [3] of 0.000488 s⁻¹ and a kon [3] of 593000 M⁻¹ s⁻¹. The Kd [5] was 2.54 nM, the koff [5] was 0.0192 s⁻¹ and the kon [5] was 7.56e+06 M⁻¹ s⁻¹. For the same binder, the “IC50 of IL-8 secretion, HaCaT … FIG. 1C” value [6] was 42 nM, the “IC50 of IL-8 secretion, HaCaT … FIG. 2B” value [7] was 14.2 nM and the “IC50 of IL-8 secretion, primary human keratinocytes, 6.25 nM human IL-36α, FIG. 4A” value [8] was 11.1 nM. The “IC50 of IL-8 secretion, primary human keratinocytes, 8.4 nM human IL-36γ, FIG. 4C” value (human IL-36γ, truncated [9]) was 15.8 nM, the “IC50 of IL-8 secretion … FIG. 5A” value [10] was 44.2 nM and the “IC50 of IL-8 secretion, primary human monocytes, 6 nM human IL-36γ, FIG. 5C” value (human IL-36γ, truncated [11]) was 19.1 nM. The “IC50 of IL-8 secretion … FIG. 5D” value (human IL-36γ, truncated [11]) was 41.2 nM, the “IC50 of IL-8 secretion, HaCaT … FIG. 1F” value (human IL-36γ, truncated [12]) was 15.8 nM and the “IC50 of IL-8 secretion, HaCaT … FIG. 2D” value [13] was 28.3 nM.

B3: 144L180A (antibody, V domains shown)
VH: B2 VH
VL: B2 VL
For B3, the “IC50 of IL-8 secretion, HaCaT … FIG. 1C” value [6] was 22.5 nM, the “IC50 of IL-8 secretion, HaCaT … FIG. 2B” value [7] was 15.7 nM and the “IC50 of IL-8 secretion … FIG. 5A” value [10] was 96.9 nM. The “IC50 of IL-8 secretion, primary human monocytes, 6 nM human IL-36γ, FIG. 5C” value (human IL-36γ, truncated [11]) was 5.49 nM, the “IC50 of IL-8 secretion … FIG. 5D” value (human IL-36γ, truncated [11]) was 50.9 nM and the “IC50 of IL-8 secretion, HaCaT … FIG. 1F” value (human IL-36γ, truncated [12]) was 21.3 nM. The “IC50 of IL-8 secretion, HaCaT … FIG. 2D” value [13] was 30.3 nM.

B4: 144L133B (antibody, V domains shown)
VH: B2 VH with I34M, N55I, Y57T, M70L, Y80F, E100D, Y102S, D103G, Q113R
VL: B2 VL
For B4, the “IC50 of IL-8 secretion, HaCaT … FIG. 1C” value [6] was 28.7 nM, the “IC50 of IL-8 secretion, HaCaT … FIG. 2B” value [7] was 9.61 nM and the “IC50 of IL-8 secretion … FIG. 5A” value [10] was 39.5 nM. For the same binder, the “IC50 of IL-8 secretion … FIG. 5D” value (human IL-36γ, truncated [11]) was 39.6 nM, the “IC50 of IL-8 secretion, HaCaT … FIG. 1F” value (human IL-36γ, truncated [12]) was 12.9 nM and the “IC50 of IL-8 secretion, HaCaT … FIG. 2D” value [13] was 20.6 nM.
